Biological target: Dipeptidyl aminopeptidase BII (DAP BII) from Pseudoxanthomonas mexicana WO24, wild type (Pseudoxanthomonas mexicana WO24) (UniProt V5YM14)
Experiment: enzyme inhibition assay

Chain of Dipeptidyl aminopeptidase BII (DAP BII) from Pseudoxanthomonas mexicana WO24, wild type (Pseudoxanthomonas mexicana WO24) (V5YM14 25-722): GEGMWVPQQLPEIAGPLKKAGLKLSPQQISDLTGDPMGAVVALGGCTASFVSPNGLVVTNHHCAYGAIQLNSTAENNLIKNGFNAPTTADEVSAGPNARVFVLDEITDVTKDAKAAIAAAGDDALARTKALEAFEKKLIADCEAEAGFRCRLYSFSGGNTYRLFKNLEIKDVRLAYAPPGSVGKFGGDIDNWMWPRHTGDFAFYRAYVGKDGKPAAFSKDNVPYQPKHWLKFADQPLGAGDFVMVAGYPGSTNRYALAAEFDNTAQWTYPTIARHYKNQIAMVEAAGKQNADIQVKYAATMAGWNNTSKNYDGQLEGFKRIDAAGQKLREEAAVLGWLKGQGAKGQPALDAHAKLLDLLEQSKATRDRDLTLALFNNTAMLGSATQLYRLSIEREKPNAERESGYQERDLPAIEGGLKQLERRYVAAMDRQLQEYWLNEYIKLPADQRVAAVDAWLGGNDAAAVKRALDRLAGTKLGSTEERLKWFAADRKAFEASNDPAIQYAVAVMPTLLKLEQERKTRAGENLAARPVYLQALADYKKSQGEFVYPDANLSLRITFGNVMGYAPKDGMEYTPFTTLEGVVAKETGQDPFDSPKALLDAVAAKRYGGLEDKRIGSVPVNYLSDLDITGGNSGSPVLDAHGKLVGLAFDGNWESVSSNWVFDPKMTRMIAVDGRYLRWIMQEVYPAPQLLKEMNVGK

Ki: 410 µM
Substance: dipeptide Val-Tyr
